Test results reported in patent US20180273634A1.
Values joined by “and” are separate entries in the source; they are usually repeats but may differ in a detail not shown here. Equal entries are not always repeated.

Tests used:
[1] = target: prostate specific antigen (PSA) (human) (UniProt P07288); experiment: SPR, Biacore 3000, PSA amine-coupled on CM4 chip, antibody in flow at 12.5-100 nM
[2] = target: prostate specific antigen (PSA) (human) (UniProt P07288); experiment: SPR, Biacore 3000, PSA amine-coupled on CM4 chip, antibody in flow; dissociation followed 8 h
[3] = target: prostate specific antigen (PSA) (human) (UniProt P07288); experiment: SPR, Biacore 3000, PSA amine-coupled on CM4 chip, antibody in flow

Chain of prostate specific antigen (PSA) (human) (P07288 25-261 limits assumed): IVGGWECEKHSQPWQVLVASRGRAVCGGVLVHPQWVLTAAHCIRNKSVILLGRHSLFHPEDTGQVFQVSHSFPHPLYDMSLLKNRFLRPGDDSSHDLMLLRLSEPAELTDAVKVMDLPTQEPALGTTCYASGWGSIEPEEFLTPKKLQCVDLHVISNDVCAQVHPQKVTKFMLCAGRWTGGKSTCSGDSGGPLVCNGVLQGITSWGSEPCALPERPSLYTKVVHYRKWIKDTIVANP

| kon [1] | koff [2] | Kd [3] [nM] | Substance |
| --- | --- | --- | --- |
| 290000 M⁻¹ s⁻¹ | 6.6e-06 s⁻¹ | 0.02 | m5A10-DFO (antibody) |
| 280000 M⁻¹ s⁻¹ | 6.3e-06 s⁻¹ | 0.02 | m5A10-DOTA (antibody) |
| 270000 M⁻¹ s⁻¹ | 6.3e-06 s⁻¹ | 0.02 | m5A10-DTPA (antibody) |
| 290000 M⁻¹ s⁻¹ and 250000 M⁻¹ s⁻¹ | 6.3e-06 s⁻¹ and 5.4e-06 s⁻¹ | 0.02 | murine 5A10 monoclonal antibody (m5A10) |
